In patent US20240270846A1 (published 2024):

B1: CE115HA000/GLS3000 N53H one-arm antibody (antibody, human IgG1, kappa, L234A L235A, N297A, name in Kabat numbering)
heavy: QVQLVESGGGVVQPGRSLRLSCAASGFTFSNAWMHWVRQAPGKGLEWVAQIKAKSNNYATYYAESVKGRFTISRDDSKNSLYLQMNSLKTEDTAVYYCRYVHYGAYYGVDAWGQGTTVTVSSASTKGPSVFPLAPSSKSTSGGTAALGCLVKDYFPEPVTVSWNSGALTSGVHTFPAVLQSSGLYSLSSVVTVPSSSLGTQTYICNVNHKPSNTKVDKKVEPKSCDKTHTCPPCPAPEAAGGPSVFLFPPKPKDTLMISRTPEVTCVVVDVSHEDPEVKFNWYVDGVEVHNAKTKPREEQYASTYRVVSVLTVLHQDWLNGKEYKCKVSNKALPAPIEKTISKAKGQPREPQVYTLPPSRCELTKNQVSLSCAVKGFYPSDIAVEWESNGQPENNYKTTPPVLDSDGSFFLVSKLTVDKSRWQQGNVFSCSVMHEALHNHYTQKSLSLSPDYKDDDDK
chain: EPKSSDKTHTCPPCPAPELLGGPSVFLFPPKPKDTLMISRTPEVTCVVVDVSHEDPEVKFNWYVDGVEVHNAKTKPREEQYNSTYRVVSVLTVLHQDWLNGKEYKCKVSNKALPAPIEKTISKAKGQPREPQVCTLPPSRDELTKNQVSLWCLVKGFYPSDIAVEWESNGQPENNYKTTPPVLDSDGSFFLYSKLTVDKSRWQQGNVFSCSVMHEALHNRYTQKSLSLSP
light: DIVMTQSPLSLPVTPGEPASISCRSSQSLVHSNRNTYLHWYQQKPGQAPRLLIYKVSHRFSGVPDRFSGSGSGTDFTLKISRVEAEDVGVYYCGQGTQVPYTFGQGTKLEIKRTVAAPSVFIFPPSDEQLKSGTASVVCLLNNFYPREAKVQWKVDNALQSGNSQESVTEQDSKDSTYSLSSTLTLSKADYEKHKVYACEVTHQGLSSPVTKSFNRGEC
notes: one-arm IgG1
B2: CE115HA000/GLS3000 N53P one-arm antibody (antibody, human IgG1, kappa, L234A L235A, N297A, name in Kabat numbering)
heavy: QVQLVESGGGVVQPGRSLRLSCAASGFTFSNAWMHWVRQAPGKGLEWVAQIKAKSNNYATYYAESVKGRFTISRDDSKNSLYLQMNSLKTEDTAVYYCRYVHYGAYYGVDAWGQGTTVTVSSASTKGPSVFPLAPSSKSTSGGTAALGCLVKDYFPEPVTVSWNSGALTSGVHTFPAVLQSSGLYSLSSVVTVPSSSLGTQTYICNVNHKPSNTKVDKKVEPKSCDKTHTCPPCPAPEAAGGPSVFLFPPKPKDTLMISRTPEVTCVVVDVSHEDPEVKFNWYVDGVEVHNAKTKPREEQYASTYRVVSVLTVLHQDWLNGKEYKCKVSNKALPAPIEKTISKAKGQPREPQVYTLPPSRCELTKNQVSLSCAVKGFYPSDIAVEWESNGQPENNYKTTPPVLDSDGSFFLVSKLTVDKSRWQQGNVFSCSVMHEALHNHYTQKSLSLSPDYKDDDDK
chain: EPKSSDKTHTCPPCPAPELLGGPSVFLFPPKPKDTLMISRTPEVTCVVVDVSHEDPEVKFNWYVDGVEVHNAKTKPREEQYNSTYRVVSVLTVLHQDWLNGKEYKCKVSNKALPAPIEKTISKAKGQPREPQVCTLPPSRDELTKNQVSLWCLVKGFYPSDIAVEWESNGQPENNYKTTPPVLDSDGSFFLYSKLTVDKSRWQQGNVFSCSVMHEALHNRYTQKSLSLSP
light: DIVMTQSPLSLPVTPGEPASISCRSSQSLVHSNRNTYLHWYQQKPGQAPRLLIYKVSPRFSGVPDRFSGSGSGTDFTLKISRVEAEDVGVYYCGQGTQVPYTFGQGTKLEIKRTVAAPSVFIFPPSDEQLKSGTASVVCLLNNFYPREAKVQWKVDNALQSGNSQESVTEQDSKDSTYSLSSTLTLSKADYEKHKVYACEVTHQGLSSPVTKSFNRGEC
notes: one-arm IgG1
B3: CE115HA000/GLS3000 N53M one-arm antibody (antibody, human IgG1, kappa, L234A L235A, N297A, name in Kabat numbering)
heavy: QVQLVESGGGVVQPGRSLRLSCAASGFTFSNAWMHWVRQAPGKGLEWVAQIKAKSNNYATYYAESVKGRFTISRDDSKNSLYLQMNSLKTEDTAVYYCRYVHYGAYYGVDAWGQGTTVTVSSASTKGPSVFPLAPSSKSTSGGTAALGCLVKDYFPEPVTVSWNSGALTSGVHTFPAVLQSSGLYSLSSVVTVPSSSLGTQTYICNVNHKPSNTKVDKKVEPKSCDKTHTCPPCPAPEAAGGPSVFLFPPKPKDTLMISRTPEVTCVVVDVSHEDPEVKFNWYVDGVEVHNAKTKPREEQYASTYRVVSVLTVLHQDWLNGKEYKCKVSNKALPAPIEKTISKAKGQPREPQVYTLPPSRCELTKNQVSLSCAVKGFYPSDIAVEWESNGQPENNYKTTPPVLDSDGSFFLVSKLTVDKSRWQQGNVFSCSVMHEALHNHYTQKSLSLSPDYKDDDDK
chain: EPKSSDKTHTCPPCPAPELLGGPSVFLFPPKPKDTLMISRTPEVTCVVVDVSHEDPEVKFNWYVDGVEVHNAKTKPREEQYNSTYRVVSVLTVLHQDWLNGKEYKCKVSNKALPAPIEKTISKAKGQPREPQVCTLPPSRDELTKNQVSLWCLVKGFYPSDIAVEWESNGQPENNYKTTPPVLDSDGSFFLYSKLTVDKSRWQQGNVFSCSVMHEALHNRYTQKSLSLSP
light: DIVMTQSPLSLPVTPGEPASISCRSSQSLVHSNRNTYLHWYQQKPGQAPRLLIYKVSMRFSGVPDRFSGSGSGTDFTLKISRVEAEDVGVYYCGQGTQVPYTFGQGTKLEIKRTVAAPSVFIFPPSDEQLKSGTASVVCLLNNFYPREAKVQWKVDNALQSGNSQESVTEQDSKDSTYSLSSTLTLSKADYEKHKVYACEVTHQGLSSPVTKSFNRGEC
notes: one-arm IgG1
B4: CE115HA000/GLS3000 N53I one-arm antibody (antibody, human IgG1, kappa, L234A L235A, N297A, name in Kabat numbering)
heavy: QVQLVESGGGVVQPGRSLRLSCAASGFTFSNAWMHWVRQAPGKGLEWVAQIKAKSNNYATYYAESVKGRFTISRDDSKNSLYLQMNSLKTEDTAVYYCRYVHYGAYYGVDAWGQGTTVTVSSASTKGPSVFPLAPSSKSTSGGTAALGCLVKDYFPEPVTVSWNSGALTSGVHTFPAVLQSSGLYSLSSVVTVPSSSLGTQTYICNVNHKPSNTKVDKKVEPKSCDKTHTCPPCPAPEAAGGPSVFLFPPKPKDTLMISRTPEVTCVVVDVSHEDPEVKFNWYVDGVEVHNAKTKPREEQYASTYRVVSVLTVLHQDWLNGKEYKCKVSNKALPAPIEKTISKAKGQPREPQVYTLPPSRCELTKNQVSLSCAVKGFYPSDIAVEWESNGQPENNYKTTPPVLDSDGSFFLVSKLTVDKSRWQQGNVFSCSVMHEALHNHYTQKSLSLSPDYKDDDDK
chain: EPKSSDKTHTCPPCPAPELLGGPSVFLFPPKPKDTLMISRTPEVTCVVVDVSHEDPEVKFNWYVDGVEVHNAKTKPREEQYNSTYRVVSVLTVLHQDWLNGKEYKCKVSNKALPAPIEKTISKAKGQPREPQVCTLPPSRDELTKNQVSLWCLVKGFYPSDIAVEWESNGQPENNYKTTPPVLDSDGSFFLYSKLTVDKSRWQQGNVFSCSVMHEALHNRYTQKSLSLSP
light: DIVMTQSPLSLPVTPGEPASISCRSSQSLVHSNRNTYLHWYQQKPGQAPRLLIYKVSIRFSGVPDRFSGSGSGTDFTLKISRVEAEDVGVYYCGQGTQVPYTFGQGTKLEIKRTVAAPSVFIFPPSDEQLKSGTASVVCLLNNFYPREAKVQWKVDNALQSGNSQESVTEQDSKDSTYSLSSTLTLSKADYEKHKVYACEVTHQGLSSPVTKSFNRGEC
notes: one-arm IgG1
B5: CE115HA000/GLS3000 N53L one-arm antibody (antibody, human IgG1, kappa, L234A L235A, N297A, name in Kabat numbering)
heavy: QVQLVESGGGVVQPGRSLRLSCAASGFTFSNAWMHWVRQAPGKGLEWVAQIKAKSNNYATYYAESVKGRFTISRDDSKNSLYLQMNSLKTEDTAVYYCRYVHYGAYYGVDAWGQGTTVTVSSASTKGPSVFPLAPSSKSTSGGTAALGCLVKDYFPEPVTVSWNSGALTSGVHTFPAVLQSSGLYSLSSVVTVPSSSLGTQTYICNVNHKPSNTKVDKKVEPKSCDKTHTCPPCPAPEAAGGPSVFLFPPKPKDTLMISRTPEVTCVVVDVSHEDPEVKFNWYVDGVEVHNAKTKPREEQYASTYRVVSVLTVLHQDWLNGKEYKCKVSNKALPAPIEKTISKAKGQPREPQVYTLPPSRCELTKNQVSLSCAVKGFYPSDIAVEWESNGQPENNYKTTPPVLDSDGSFFLVSKLTVDKSRWQQGNVFSCSVMHEALHNHYTQKSLSLSPDYKDDDDK
chain: EPKSSDKTHTCPPCPAPELLGGPSVFLFPPKPKDTLMISRTPEVTCVVVDVSHEDPEVKFNWYVDGVEVHNAKTKPREEQYNSTYRVVSVLTVLHQDWLNGKEYKCKVSNKALPAPIEKTISKAKGQPREPQVCTLPPSRDELTKNQVSLWCLVKGFYPSDIAVEWESNGQPENNYKTTPPVLDSDGSFFLYSKLTVDKSRWQQGNVFSCSVMHEALHNRYTQKSLSLSP
light: DIVMTQSPLSLPVTPGEPASISCRSSQSLVHSNRNTYLHWYQQKPGQAPRLLIYKVSLRFSGVPDRFSGSGSGTDFTLKISRVEAEDVGVYYCGQGTQVPYTFGQGTKLEIKRTVAAPSVFIFPPSDEQLKSGTASVVCLLNNFYPREAKVQWKVDNALQSGNSQESVTEQDSKDSTYSLSSTLTLSKADYEKHKVYACEVTHQGLSSPVTKSFNRGEC
notes: one-arm IgG1
B6: CE115HA000/GLS3000 N53K one-arm antibody (antibody, human IgG1, kappa, L234A L235A, N297A, name in Kabat numbering)
heavy: QVQLVESGGGVVQPGRSLRLSCAASGFTFSNAWMHWVRQAPGKGLEWVAQIKAKSNNYATYYAESVKGRFTISRDDSKNSLYLQMNSLKTEDTAVYYCRYVHYGAYYGVDAWGQGTTVTVSSASTKGPSVFPLAPSSKSTSGGTAALGCLVKDYFPEPVTVSWNSGALTSGVHTFPAVLQSSGLYSLSSVVTVPSSSLGTQTYICNVNHKPSNTKVDKKVEPKSCDKTHTCPPCPAPEAAGGPSVFLFPPKPKDTLMISRTPEVTCVVVDVSHEDPEVKFNWYVDGVEVHNAKTKPREEQYASTYRVVSVLTVLHQDWLNGKEYKCKVSNKALPAPIEKTISKAKGQPREPQVYTLPPSRCELTKNQVSLSCAVKGFYPSDIAVEWESNGQPENNYKTTPPVLDSDGSFFLVSKLTVDKSRWQQGNVFSCSVMHEALHNHYTQKSLSLSPDYKDDDDK
chain: EPKSSDKTHTCPPCPAPELLGGPSVFLFPPKPKDTLMISRTPEVTCVVVDVSHEDPEVKFNWYVDGVEVHNAKTKPREEQYNSTYRVVSVLTVLHQDWLNGKEYKCKVSNKALPAPIEKTISKAKGQPREPQVCTLPPSRDELTKNQVSLWCLVKGFYPSDIAVEWESNGQPENNYKTTPPVLDSDGSFFLYSKLTVDKSRWQQGNVFSCSVMHEALHNRYTQKSLSLSP
light: DIVMTQSPLSLPVTPGEPASISCRSSQSLVHSNRNTYLHWYQQKPGQAPRLLIYKVSKRFSGVPDRFSGSGSGTDFTLKISRVEAEDVGVYYCGQGTQVPYTFGQGTKLEIKRTVAAPSVFIFPPSDEQLKSGTASVVCLLNNFYPREAKVQWKVDNALQSGNSQESVTEQDSKDSTYSLSSTLTLSKADYEKHKVYACEVTHQGLSSPVTKSFNRGEC
notes: one-arm IgG1

Each binder was assayed against T1, CD3 epsilon homodimer protein (UniProt P07766 23-126) (assay: SPR (Biacore T200), CD3e homodimer on CM4 chip, antibody as analyte; KD ratio vs unaltered GLS3000;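 further: CD3 epsilon homodimer amine-coupled to the sensor surface, antibodies injected as analyte at 25 °C with HBS-EP+ running buffer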).
T1 construct: also called CD3 (CD3 epsilon)
T1 sequence (P07766 23-126): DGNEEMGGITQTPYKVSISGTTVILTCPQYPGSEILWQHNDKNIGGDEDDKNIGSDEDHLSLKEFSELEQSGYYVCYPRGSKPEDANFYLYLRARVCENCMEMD
With B1 the “KD ratio to GLS3000” value was 1.31 ratio. B2 was tested, and the “KD ratio to GLS3000” value was 0.98 ratio. In the case of B3, the “KD ratio to GLS3000” value is reported as 1.21 ratio. In the case of B4, the “KD ratio to GLS3000” value is reported as 2.69 ratio. For B5, the “KD ratio to GLS3000” value was 1.62 ratio. B6 was tested, and the “KD ratio to GLS3000” value was 1.05 ratio.
